T1: glucose-dependent insulinotropic peptide (gastric inhibitory polypeptide) receptor (GIPR), primary cAMP assay … (human, UniProt P48546 22-466)
T1 sequence (looked up): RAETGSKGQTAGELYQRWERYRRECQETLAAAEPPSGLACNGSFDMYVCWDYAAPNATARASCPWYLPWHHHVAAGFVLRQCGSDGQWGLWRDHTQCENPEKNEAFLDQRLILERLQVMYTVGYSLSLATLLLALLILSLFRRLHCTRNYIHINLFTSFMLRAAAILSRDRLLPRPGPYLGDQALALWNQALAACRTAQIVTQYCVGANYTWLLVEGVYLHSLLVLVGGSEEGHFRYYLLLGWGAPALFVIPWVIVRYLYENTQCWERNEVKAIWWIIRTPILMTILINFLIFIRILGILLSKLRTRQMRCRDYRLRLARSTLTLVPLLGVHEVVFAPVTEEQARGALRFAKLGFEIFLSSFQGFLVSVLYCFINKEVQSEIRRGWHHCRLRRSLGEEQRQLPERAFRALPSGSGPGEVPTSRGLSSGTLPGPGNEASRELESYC

B1: SEQ ID NO: 465 (peptide)
peptide: H[Aib]EGS[αMeF]TSDV[αMeS]SK([PEG2′-PEG2′-γGlu-Lauroyl])LEGEK([PEG2′-PEG2′-γGlu-Lauroyl])A[αMeK]EFIAK([PEG2′-PEG2′-γGlu-Lauroyl])VVEGG-NH2
B2: SEQ ID NO: 472 (peptide)
peptide: H[Aib]EGS[αMeF]TSDK([PEG2′-PEG2′-γGlu-Lauroyl])SSYLEGK([PEG2′-PEG2′-γGlu-Lauroyl])AA[αMeK]EFIAFK([PEG2′-PEG2′-γGlu-Lauroyl])VEGG-NH2
B3: SEQ ID NO: 468 (peptide)
peptide: H[Aib]EGS[αMeF]TSDV[αMeS]SYK([PEG2′-PEG2′-γGlu-Lauroyl])EGK([PEG2′-PEG2′-γGlu-Lauroyl])AA[αMeK]EFIAK([PEG2′-PEG2′-γGlu-Lauroyl])VVEGG-NH2
B4: SEQ ID NO: 463 (peptide)
peptide: H[Aib]EGS[αMeF]TSDV[αMeS]SK([PEG2′-PEG2′-γGlu-Lauroyl])LEK([PEG2′-PEG2′-γGlu-Lauroyl])EAA[αMeK]EFIAK([PEG2′-PEG2′-γGlu-Lauroyl])VVEGG-NH2
B5: SEQ ID NO: 474 (peptide)
peptide: H[Aib]EGS[αMeF]TSDK([PEG2′-PEG2′-γGlu-Lauroyl])SSYLEGEAA[αMeK]K([PEG2′-PEG2′-γGlu-Lauroyl])FIAFK([PEG2′-PEG2′-γGlu-Lauroyl])VEGG-NH2
B6: SEQ ID NO: 475 (peptide)
peptide: H[Aib]EGS[αMeF]TSDVSK([PEG2′-PEG2′-γGlu-Lauroyl])YLEK([PEG2′-PEG2′-γGlu-Lauroyl])EAA[αMeK]EFIAFK([PEG2′-PEG2′-γGlu-Lauroyl])VEGG-NH2
B7: SEQ ID NO: 473 (peptide)
peptide: H[Aib]EGS[αMeF]TSDK([PEG2′-PEG2′-γGlu-Lauroyl])SSYLEGEK([PEG2′-PEG2′-γGlu-Lauroyl])A[αMeK]EFIAFK([PEG2′-PEG2′-γGlu-Lauroyl])VEGG-NH2
B8: SEQ ID NO: 478 (peptide)
peptide: H[Aib]EGS[αMeF]TSDVSK([PEG2′-PEG2′-γGlu-Lauroyl])YLEGEAA[αMeK]K([PEG2′-PEG2′-γGlu-Lauroyl])FIAFK([PEG2′-PEG2′-γGlu-Lauroyl])VEGG-NH2
B9: SEQ ID NO: 471 (peptide)
peptide: H[Aib]EGS[αMeF]TSDK([PEG2′-PEG2′-γGlu-Lauroyl])SSYLEK([PEG2′-PEG2′-γGlu-Lauroyl])EAA[αMeK]EFIAFK([PEG2′-PEG2′-γGlu-Lauroyl])VEGG-NH2
B10: SEQ ID NO: 477 (peptide)
peptide: H[Aib]EGS[αMeF]TSDVSK([PEG2′-PEG2′-γGlu-Lauroyl])YLEGEK([PEG2′-PEG2′-γGlu-Lauroyl])A[αMeK]EFIAFK([PEG2′-PEG2′-γGlu-Lauroyl])VEGG-NH2
B11: SEQ ID NO: 476 (peptide)
peptide: H[Aib]EGS[αMeF]TSDVSK([PEG2′-PEG2′-γGlu-Lauroyl])YLEGK([PEG2′-PEG2′-γGlu-Lauroyl])AA[αMeK]EFIAFK([PEG2′-PEG2′-γGlu-Lauroyl])VEGG-NH2

The values that follow come from patent US20200079833A1 (AstraZeneca / MedImmune, published 2020).

Starred links: 1 amine or outer side, 2 acyl side, 3 side chain; linkers in the order of their positions; H or OH if unused. Non-standard residues stand in square brackets, D forms with d. Groups on a side chain read outwards from the residue. Primed or numbered codes have the meaning given here. No end group written: not given here. *: point of attachment. γGlu = O=C(O)[C@H](CCC(=O)[*:2])N[*:1]; αMeF = C[C@](N)(Cc1ccccc1)C(=O)O; αMeK = C[C@](N)(CCCCN)C(=O)O; Lauroyl = CCCCCCCCCCCC(=O)*; αMeS = C[C@](N)(CO)C(=O)O; PEG2′ = not defined here; Aib = CC(C)(N)C(=O)O

The target in one assay is GLP-1 receptor (GLP-1R), primary cAMP assay cell line (human, UniProt P43220 24-463). The assay is described as follows: cell-based or functional assay.
On to B1, for which the “cAMP Primary assay EC50, Mean pM GLP-1R” value was 117 pM; the “cAMP Primary assay EC50, n1” value came to 0.101 nM; the “cAMP Primary assay EC50, n2” value came to 0.133 nM.

With B2, the “cAMP Primary assay EC50, Mean pM GLP-1R” value turned out to be 287 pM; the “cAMP Primary assay EC50, n1” value is 0.297 nM; the “cAMP Primary assay EC50, n2” value was 0.277 nM.

For B3, the “cAMP Primary assay EC50, Mean pM GLP-1R” value worked out at 73.5 pM; the “cAMP Primary assay EC50, n1” value amounted to 0.0624 nM; the “cAMP Primary assay EC50, n2” value was 0.0845 nM.

For the molecule B4, the “cAMP Primary assay EC50, Mean pM GLP-1R” value was determined as 82 pM; the “cAMP Primary assay EC50, n1” value was found to be 0.0695 nM; the “cAMP Primary assay EC50, n2” value was 0.0944 nM.

Turning to B5, the “cAMP Primary assay EC50, Mean pM GLP-1R” value came to 290 pM; the “cAMP Primary assay EC50, n1” value was determined as 0.279 nM; the “cAMP Primary assay EC50, n2” value was found to be 0.3 nM.

Turning to B6, the “cAMP Primary assay EC50, Mean pM GLP-1R” value was found to be 288 pM; the “cAMP Primary assay EC50, n1” value worked out at 0.228 nM; the “cAMP Primary assay EC50, n2” value amounted to 0.347 nM.

Consider B7, for which the “cAMP Primary assay EC50, Mean pM GLP-1R” value worked out at 434 pM; the “cAMP Primary assay EC50, n1” value amounted to 0.399 nM; the “cAMP Primary assay EC50, n2” value stood at 0.47 nM.

On to B8, for which the “cAMP Primary assay EC50, Mean pM GLP-1R” value amounted to 118 pM; the “cAMP Primary assay EC50, n1” value stood at 0.103 nM; the “cAMP Primary assay EC50, n2” value is 0.134 nM.

For the molecule B9, the “cAMP Primary assay EC50, Mean pM GLP-1R” value came to 374 pM; the “cAMP Primary assay EC50, n1” value amounted to 0.277 nM; the “cAMP Primary assay EC50, n2” value was found to be 0.47 nM.

Turning to B10, the “cAMP Primary assay EC50, Mean pM GLP-1R” value amounted to 264 pM; the “cAMP Primary assay EC50, n1” value turned out to be 0.226 nM; the “cAMP Primary assay EC50, n2” value came to 0.302 nM.

For B11, the “cAMP Primary assay EC50, Mean pM GLP-1R” value came to 216 pM; the “cAMP Primary assay EC50, n1” value came out at 0.174 nM; the “cAMP Primary assay EC50, n2” value is 0.257 nM.

In a further assay the target is glucagon receptor (GCGR), primary cAMP assay cell line (human, UniProt P47871 26-477). The assay is described as follows: cell-based or functional assay.
glucagon receptor (GCGR), primary cAMP assay cell line, sequence (P47871 26-477): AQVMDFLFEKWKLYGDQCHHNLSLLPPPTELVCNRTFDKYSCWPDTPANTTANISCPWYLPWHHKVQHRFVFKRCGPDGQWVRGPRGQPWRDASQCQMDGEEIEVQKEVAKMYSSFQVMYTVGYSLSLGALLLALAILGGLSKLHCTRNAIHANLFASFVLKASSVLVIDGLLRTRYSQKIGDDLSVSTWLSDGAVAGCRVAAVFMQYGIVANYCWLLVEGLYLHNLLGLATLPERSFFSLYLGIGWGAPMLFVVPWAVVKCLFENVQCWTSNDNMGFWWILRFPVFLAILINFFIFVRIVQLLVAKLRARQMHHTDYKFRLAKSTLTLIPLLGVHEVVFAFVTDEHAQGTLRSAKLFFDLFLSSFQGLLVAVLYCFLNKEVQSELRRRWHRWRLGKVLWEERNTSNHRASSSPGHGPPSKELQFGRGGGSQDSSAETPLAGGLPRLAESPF
Turning to B1, the “cAMP Primary assay EC50, n1” value came out at 20 nM and the “cAMP Primary assay EC50, n2” value amounted to 20 nM.

Turning to B2, the “cAMP Primary assay EC50, n1” value stood at 19.9 nM and the “cAMP Primary assay EC50, n2” value was found to be 19.9 nM.

Take B3: the “cAMP Primary assay EC50, n1” value came out at 20 nM and the “cAMP Primary assay EC50, n2” value is 20 nM.

On to B4, for which the “cAMP Primary assay EC50, n1” value is 20 nM and the “cAMP Primary assay EC50, n2” value came to 20 nM.

Take B5: the “cAMP Primary assay EC50, n1” value was found to be 19.9 nM and the “cAMP Primary assay EC50, n2” value is 19.9 nM.

With B6, the “cAMP Primary assay EC50, n1” value came out at 19.5 nM and the “cAMP Primary assay EC50, n2” value is 19.5 nM.

For B7, the “cAMP Primary assay EC50, n1” value worked out at 19.6 nM and the “cAMP Primary assay EC50, n2” value turned out to be 19.6 nM.

In the case of B8, the “cAMP Primary assay EC50, n1” value was 19.8 nM and the “cAMP Primary assay EC50, n2” value was determined as 19.8 nM.

For the molecule B9, the “cAMP Primary assay EC50, n1” value turned out to be 19.6 nM and the “cAMP Primary assay EC50, n2” value amounted to 19.6 nM.

With B10, the “cAMP Primary assay EC50, n1” value came to 19.6 nM and the “cAMP Primary assay EC50, n2” value was 19.6 nM.

B11: the “cAMP Primary assay EC50, n1” value turned out to be 19.8 nM and the “cAMP Primary assay EC50, n2” value came to 19.8 nM.

Another assay concerns the target T1, glucose-dependent insulinotropic …. The experiment in a line: cell-based or functional assay.
In the case of B1, the “cAMP Primary assay EC50, n1” value amounted to 20 nM and the “cAMP Primary assay EC50, n2” value came out at 20 nM.

For B2, the “cAMP Primary assay EC50, n1” value turned out to be 19.9 nM and the “cAMP Primary assay EC50, n2” value stood at 19.9 nM.

In the case of B3, the “cAMP Primary assay EC50, n1” value was 20 nM and the “cAMP Primary assay EC50, n2” value came out at 20 nM.

Take B4: the “cAMP Primary assay EC50, n1” value is 20 nM and the “cAMP Primary assay EC50, n2” value came out at 20 nM.

For B5, the “cAMP Primary assay EC50, n1” value amounted to 19.9 nM and the “cAMP Primary assay EC50, n2” value was 19.9 nM.

B6: the “cAMP Primary assay EC50, n1” value was 19.5 nM and the “cAMP Primary assay EC50, n2” value is 19.5 nM.

As for B7, the “cAMP Primary assay EC50, n1” value was 19.6 nM and the “cAMP Primary assay EC50, n2” value came to 19.6 nM.

B8: the “cAMP Primary assay EC50, n1” value is 19.8 nM and the “cAMP Primary assay EC50, n2” value is 19.8 nM.

In the case of B9, the “cAMP Primary assay EC50, n1” value worked out at 19.6 nM and the “cAMP Primary assay EC50, n2” value is 19.6 nM.

As for B10, the “cAMP Primary assay EC50, n1” value was found to be 19.6 nM and the “cAMP Primary assay EC50, n2” value is 19.6 nM.

On to B11, for which the “cAMP Primary assay EC50, n1” value was 19.8 nM and the “cAMP Primary assay EC50, n2” value was determined as 19.8 nM.
